Data from patent publication US20200270310A1, “MAFG AS A POTENTIAL THERAPEUTIC TARGET TO RESTORE CHEMOSENSITIVITY IN PLATINUM-RESISTANT CANCER CELLS” (FUNDACÓIN PARA LA INVESTIGACIÓN BIOMÉDICA DEL HOSPITAL …, priority 2017, published 2020).

B1: GCGGATGAAGACTGGTGTCGATGCATGTGTAGTGCATTTCGAGCCGTTCTATTGGTGTGCCCTAAATACGAGCAAC (nucleic acid)
chain: GCGGATGAAGACTGGTGTCGATGCATGTGTAGTGCATTTCGAGCCGTTCTATTGGTGTGCCCTAAATACGAGCAAC
modifications: chemistry not given here
notes: DNA aptamer selected against the MAFG protein by SELEX

Key:
H23R cells = test: Viability to CDDP after aptamer transfection (resistance index); assay type: cell-based, human; details: comparison value for apMAFG6F
Description: FIG. 6. Viability curves combining the best dose of aptamers (25nM) and increasing doses of CDDP. Each experimental group was exposed for 72 h to 6 different CDDP concentrations after aptamers transfection; data were normalized to each untreated control, set to 100% and represent the mean±SD of at least 3 independent experiments performed in quadruplicate at each drug concentration for each cell line analyzed 25nM of aptamers and increasing doses of CDDP in H23S/R cells.
Once identified the best dose of aptamers, cells were transfected with aptamers and treated with increased doses of CDDP to assay viability and ROS production as mentioned above. In parallel, for all the experiments, cells were seeded in 24-well plates for aptamers extraction and confirmation of aptamers transfection.
HEK293 and H23S/R cells were seeded into 96-well plates then transfected with 5, 12.5, 25, 75 and 100 nM of MAFG aptamers or treated with PBS-Mg using Jet Pei PolyPlus transfection reagent (PolyPlus Transfection, USA). The dose of 25 nM aptamer was afterwards used in combination with increased doses of CDDP to assay viability and ROS production as described above. To confirm the aptamer-transfection efficiency cells were seeded in 24-well plates for aptamer isolation and confirmation of aptamer transfection by quantitative analysis. A Myc-DDK-tagged ORF clone of MAFG the negative control pCMV6 were used for in transient transfection (OriGene, USA) in combination with MAFG-aptamers following the same procedure.

[1] = target: T1, MAFG in tumor samples of patients with lung cancer (Homo sapiens, UniProt O15525); test: Aptahistochemistry in NSCLC tumor samples; details: 20 tumor samples classified by MAFG mRNA levels
T1 construct: from tissue; host or cells: Formalin-fixed paraffin-embedded NSCLC tumour sections
Description: The formalin-fixed and paraffin-embedded tissue sections of patients with lung cancer were baked 15 minutes at 60° C. Deparaffinization was performed by two washes of xylene for 10 minutes each. Tissue sections were rehydrated by a sequential wash in 100%, 90%, 80%, 70% ethanol and distilled water for 5 minutes each. Antigen retrieval was achieved by heat treatment in a pressure cooker for 2 minutes in 10 mM citrate buffer (pH 6.5). Endogenous peroxidase activity of tissues was blocked with 0.3% […]. The primary binding reaction was performed with 10 pmol/ml of digoxigenin-conjugated aptamers overnight at room temperature. The secondary binding reaction was performed with anti-digoxigenin conjugated with POD (Roche; 1/200 dilution in TBS) for 45 minutes. Staining was done using the Immunoperoxidase DAB kit (Master Diagnostica), according to the manufacturer's instructions. The sections were counterstained with hematoxylin.
We then took advantage of the aptacytochemistry to perform an aptamer-based histochemistry in 20 tumor samples from our cohort of patients with known mRNA levels of MAFG. […] To determine the correlation between the aptahistochemistry and the mRNA levels of MAFG, we calculated the percentage of cells with positive staining from the total number of cells computed at four different areas randomly selected for each sample.

[2] = target: T2, MAFG in H23S and H23R cells (Homo sapiens, UniProt O15525); test: Aptacytochemistry with digoxigenin-labeled individual aptamers; assay type: cell-based
T2 construct: endogenous in cells; host or cells: H23S and H23R (NSCLC cells, fixed)
Description: Following the methodology described above, H23R cells were incubated with 6 pmol of digoxigenin-labeled aptamers (IBA Life Sciences) in selection buffer for 1 hour at room temperature. Subsequently, cells were washed three times with PBS and incubated with anti-digoxigenin conjugated with 5′ AlexaFluor 488 (R&D systems, USA) at 1/500 dilution in blocking buffer for 1 hour at room temperature, as secondary antibody. Finally, the cells were mounted on glass slides using glycerol-buffer containing p-phenylenediamine and 1/750 dilution of Dapi for nuclear staining. Controls were made by omitting the aptamer. Colocalization was assessed by confocal microcopy as described in (iii).

Molecule | CDDP resistance index without aptamer (H23R cells) | percentage of positive cells in samples with higher MAFG levels [1] | cellular localization of the aptamer [2] | number of dots per nucleus, H23R versus H23S [2]
[NH2][Pt]([NH2])([Cl])[Cl] [CDDP, Cisplatin] | 2.63 | – | – | –
B1 | – | significant increment in the percentage of positive cells | preferentially located at the nuclei | remarkable differences
